Measurements as given in US9193770.

Biological target: TLR5 of the luciferase reporter assay
Experiment: cell-based or functional assay

For “native H7 flagellin purified from E. coli O157:H7 (ligand)”, the luciferase reporter assay, TLR5 activity was 0.1 ng/mL.
